Article PMC8111780, “NMR structural analysis of the yeast cytochrome c oxidase subunit Cox13 and its interaction with ATP” (BMC Biology, 2021)

Tests used:
Cox13 = target: T1, Cox13 (Saccharomyces cerevisiae, UniProt P32799); assay: 1H-15N HSQC NMR titration (chemical shift perturbation, global fit); assay type: binding
T1 construct: 15 kDa; homodimer
T1 sequence (P32799 1-129): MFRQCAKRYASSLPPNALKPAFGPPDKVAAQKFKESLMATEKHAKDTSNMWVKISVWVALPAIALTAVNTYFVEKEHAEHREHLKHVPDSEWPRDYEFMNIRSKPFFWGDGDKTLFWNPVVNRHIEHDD

Cox13Δ-CytcO = system: T2, Cox13Δ-CytcO; assay: oxygen consumption (Clark electrode), activity vs ATP; assay type: biochemical, Saccharomyces cerevisiae; conditions: tentative fit of stimulation of turnover; yeast cyt. c 50 μM, ascorbate, TMPD, 0.035% DDM, KPi; allosteric, more than one site
T2 construct: gene COX1; Complex IV lacking subunit Cox13, Flag-tag on Cox6, purified from yeast membranes in DDM; ATP site not assigned

[1] = target: Cox13Δ-CytcO: S. cerevisiae cytochrome c oxidase lacking Cox13, with a Flag-tag on Cox6 (S. cerevisiae) (UniProt P00401)
Sequence of Cox13Δ-CytcO: S. cerevisiae cytochrome c oxidase lacking Cox13, with a Flag-tag on Cox6 (S. cerevisiae) (P00401 whole entry, looked up, stated change not applied): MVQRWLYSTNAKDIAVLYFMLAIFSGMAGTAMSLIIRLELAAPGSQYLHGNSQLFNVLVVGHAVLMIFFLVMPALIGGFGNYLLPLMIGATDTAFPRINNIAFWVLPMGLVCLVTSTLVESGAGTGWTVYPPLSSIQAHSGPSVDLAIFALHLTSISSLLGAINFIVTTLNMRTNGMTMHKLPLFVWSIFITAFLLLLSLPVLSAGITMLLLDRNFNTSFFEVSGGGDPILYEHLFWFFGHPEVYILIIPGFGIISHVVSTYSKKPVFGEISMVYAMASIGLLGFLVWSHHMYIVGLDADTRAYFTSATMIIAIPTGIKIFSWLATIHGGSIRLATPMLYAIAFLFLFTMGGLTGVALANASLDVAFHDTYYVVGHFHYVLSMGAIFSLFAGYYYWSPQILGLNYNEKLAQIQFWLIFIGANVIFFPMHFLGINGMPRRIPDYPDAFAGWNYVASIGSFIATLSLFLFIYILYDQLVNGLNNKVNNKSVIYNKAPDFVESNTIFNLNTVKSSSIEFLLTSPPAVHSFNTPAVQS

[2] = target: wildtype S. cerevisiae cytochrome c oxidase (CytcO, Complex IV) with a 6xHis-tag on Cox13 (S. cerevisiae) (UniProt P00401)
Sequence of wildtype S. cerevisiae cytochrome c oxidase (CytcO, Complex IV) with a 6xHis-tag on Cox13 (S. cerevisiae) (P00401 whole entry, looked up, one chain of several): as the sequence (P00401 whole entry, looked up, stated change not applied) above

[3] = target: the molecule itself; assay: SEC; Superdex 200 10/300; 20 mM NaPi pH 6.5, 50 mM L-Arg, 50 mM L-Glu, 1 mM DTT, 3 mM DPC; Cox13-DPC complex elutes in a single peak of apparent mass 55-60 kDa

In the case of `Nc1ncnc2c1ncn2[C@@H]1O[C@H](COP(=O)(O)OP(=O)(O)O)[C@@H](O)[C@H]1O` [ADP], the Kd (Cox13) is reported as 17 ± 2 mM.

With `Nc1ncnc2c1ncn2[C@@H]1O[C@H](COP(=O)(O)OP(=O)(O)OP(=O)(O)O)[C@@H](O)[C@H]1O` [ATP] the Kd (Cox13Δ-CytcO) was “ATP binds less tight (with tentative Kd in the mM range” and the Kd (Cox13) was 15 ± 2 mM.

For “yeast cytochrome c (from UniProt P00044 1-109) (natural protein)”, the Km^1 (low Km) for cyt. c, oxygen-consumption turnover of purified Cox13Δ-CytcO against added yeast cyt. c, no ATP [1] was 0.2 µM, the Km^2 (high Km) for cyt. c, oxygen-consumption turnover of purified Cox13Δ-CytcO against added yeast cyt. c, no ATP [1] was 20 µM and the single Km for cyt. c, oxygen-consumption turnover of purified Cox13Δ-CytcO against added yeast cyt. c, with 5 mM ATP [1] was 5.8 µM. It also gave a Km^1 (low Km) for cyt. c, oxygen-consumption turnover of purified CytcO against added yeast cyt. c, no ATP [2] of 1.3 µM, a Km^2 (high Km) for cyt. c, oxygen-consumption turnover of purified CytcO against added yeast cyt. c, no ATP [2] of 20 µM and a single Km for cyt. c, oxygen-consumption turnover of purified CytcO against added yeast cyt. c, with 5 mM ATP [2] of 8.6 µM.

B1: Cox13 (cytochrome c oxidase subunit Cox13) from S. cerevisiae, refolded in DPC micelles (natural protein)
chain: ASSLPPNALKPAFGPPDKVAAQKFKESLMATEKHAKDTSNMWVKISVWVALPAIALTAVNTYFVEKEHAEHREHLKHVPDSEWPRDYEFMNIRSKPFFWGDGDKTLFWNPVVNRHIEHDD
notes: Cox13, cytochrome c oxidase subunit of S. cerevisiae; the gene was cloned into pET-28a; predicted mass 15 kDa; residues assigned up to I125; Isotope-labelled (15N and/or 13C) or unlabelled, depending on the experiment; also called Cox13-DPC complex; CoxVIa in mammals (homolog)
For B1, the “stoichiometry N” value [3] was 2.
